Test results as given in patent publication US20220242974A1 (QURE BIOTECHNOLOGY SHANGHAI, published 2022).
Each block holds one binder with its values, some of them ahead of it.

Target: PD-L1-his fusion protein (Homo sapiens (Human), UniProt Q9NZQ7 19-238)
Assay: ELISA, PD-L1-his coated, culture supernatant of the clone

Chain of PD-L1-his fusion protein (Q9NZQ7 other isoform, or with tags, fused parts or gaps limits assumed): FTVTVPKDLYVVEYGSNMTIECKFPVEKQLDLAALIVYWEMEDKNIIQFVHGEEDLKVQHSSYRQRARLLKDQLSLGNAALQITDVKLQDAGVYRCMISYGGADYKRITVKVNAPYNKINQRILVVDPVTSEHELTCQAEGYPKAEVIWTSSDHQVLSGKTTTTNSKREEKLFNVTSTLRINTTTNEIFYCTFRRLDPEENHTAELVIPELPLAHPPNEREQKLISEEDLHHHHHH

binding result: binds
B1: QP1128 nanobody (VHH)
VHH: QVQLVESGGGSVQSGGSLRLSCAASGYTASAYYMAWFRQNSRKQREGVAAINRDGDTKYADSVKGRFTISRDDAKNTLYLQMNSLKPEDTAVYYCAASDWSRLYKIYWLDDNYYVRWGQGTQVTVSS
notes: as m59

binding result: binds
B2: QP1127 nanobody (VHH)
VHH: QVQLVESGGGSVQSGGSLTLSCAISGYAYATYSMAWFRQAHGKEREGVAAINSDGHTTYVDSVKGRFTISRDNTNKNSYTLTLTMNNLNPEDTAMYYCAATSQLGFWAQKLWEAIRDGTWSPSTTDFGFWGRGTQVTVSS
notes: as m59

binding result: binds
B3: QP1125 nanobody (VHH)
VHH: QVQLVESGGGLVQPGGSLRLSCTAPGFTDKTCAMAWYRQVAGIEREWVSSISTLGTTNYASSVKGRFTISKDNAKDTVYLQMNNLKPEDTAMYVCKTFSCRNRGGSYLPDTWGQGTQVTVSS
notes: as m59
